Numbering of substitutions follows the chain as printed. Square brackets hold non-standard residues; d marks the D form. Ends that are not written are not given here. pY = N[C@@H](Cc1ccc(OP(=O)(O)O)cc1)C(=O)O
How the values were obtained:
[1] = test system: N-SH2 domain of the phosphatase; conditions: phosphorylated tyrosine of N-terminal portion; ref [36]; cited from earlier work
[2] = test system: SHP2; conditions: ref [11], [36]; cited from earlier work
[3] = Phosphopeptide array binding analysis; conditions: Two Sample Logo, peptide array, GST-tagged N-SH2 domain 1 μg/ml

For “GGGGDIT[pY]ADLNLPKGKK [N-terminal portion of the BTAM peptide]”, the “binding to N-SH2 domain” value [1] is listed as “known to bind specifically the N-SH2 domain of the phosphatase”.

For “GGGGDIT(pY)ADLNLPKGKKPAPQAAEPNNHTE(pY)ASIQTS [BTAM peptide]”, the “activation of SHP2” value [2] is listed as “previously demonstrated to activate SHP2”.

B1: wild-type domain: isolated wild-type N-SH2 domain (residues 6–103), polyHis- or GST-tagged (protein)
chain: WFHPNITGVEAENLLLTRGVDGSFLARPSKSNPGDFTLSVRRNGAVTHIKIQNTGDYYDLYGGEKFATLAELVQYYMEHHGQLKEKNGDVIELKYPLN
modifications: left off: polyHis, end not stated, kept
With B1 the “phosphopeptide positions mediating binding specificity (from pY)” value [3] was −2, −1, +1, +2, and +3 from the phosphotyrosine.

B2: N-SH2^Lys76 (protein)
chain: B1 chain with E71K
modifications: left off: GST, end not stated, kept
For B2, the “phosphopeptide positions mediating binding specificity (from pY)” value [3] was “Those positions were found to bear the highest information content”.

B3: N-SH2^Cys63 (protein)
chain: B1 chain with Y58C
modifications: left off: polyHis, end not stated, kept
With B3 the “phosphopeptide positions mediating binding specificity (from pY)” value [3] was “Those positions were found to bear the highest information content”.

B4: N-SH2^Asp62 (protein)
chain: B1 chain with Y57D
modifications: left off: polyHis, end not stated, kept
With B4 the “phosphopeptide positions mediating binding specificity (from pY)” value [3] was “Those positions were found to bear the highest information content”.

Source: publication PMC3411048 (The Journal of Biological Chemistry, 2012)
